Experiments:
[1] = target: T1, His-HupS (nonacetylated, -AcP) (Streptomyces venezuelae) (UniProt F2R5C9); experiment: BLI; conditions: 1 mM Mg2+; BLI: 100 mM Tris-HCl pH 8.0, 200 mM NaCl, 1 mM MgCl2, 0.005% Tween-20, 0.1 mg/ml BSA, 30 C; EMSA: 50 mM Tris-HCl pH 8.0, 150 mM NaCl, 0.02% Tween-20, 10 mM Mg …
T1 sequence: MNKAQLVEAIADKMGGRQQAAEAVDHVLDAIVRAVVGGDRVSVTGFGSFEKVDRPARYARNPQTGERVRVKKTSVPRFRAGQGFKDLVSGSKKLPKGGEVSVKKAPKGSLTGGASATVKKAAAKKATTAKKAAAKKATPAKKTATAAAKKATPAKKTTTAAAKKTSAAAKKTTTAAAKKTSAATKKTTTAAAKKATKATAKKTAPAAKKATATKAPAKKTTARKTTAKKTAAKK

[2] = target: T2, His-HupS acetylated in vitro (+AcP) (Streptomyces venezuelae) (UniProt F2R5C9); experiment: BLI; conditions: 1 mM Mg2+; lysine-acetylated; BLI: 100 mM Tris-HCl pH 8.0, 200 mM NaCl, 1 mM MgCl2, 0.005% Tween-20, 0.1 mg/ml BSA, 30 C; EMSA: 50 mM Tris-HCl pH 8.0, 150 mM NaCl, 0.02% Tween-20, 10 mM Mg …
T2 sequence: T1 sequence

Row | Substance | Kd [1] [nM] | Kd [2] [nM]
1 | one-end biotinylated dsDNA 300 bp | 17.4 | 28.6
2 | two-ends biotinylated dsDNA 300 bp | 11.3 | 20
